{"source": "the DeepSol protein solubility set"}
{"assay": "soluble on expression in E. coli; label from the status in PepcDB or PDB records"}
{"sequence": "MAHSGDNHSSEFCMLRSLSASIGADPLLVQGAGGNTSIKQAGVLWIKASGTWLKNARDDEIMVPVALAPLLDAVSHRSPAAEAAGQFTLADLNPRQLRPSIETTVHALLPQKIVVHVHCVETISIAVQANAEALLEGRLRGLDWAFVPYRRPGLPLAQAIAERLKPATNVLVLGNHGLVVAADTVAEAALLLQRVTGLLARQPRPAPPPDLDALLRLAAGSDYRLPASTAAHAVATDLASCRIAASGSLYPDHVIFLGVGSVIAGPGENAAAVVARTAAAPTSILFPGKGVLMRREANAGAEAMARCLADVVARVDGAARVNYLSPKENAELLNWDAEKYRQQLNREGATLQLEHHHHHH", "soluble on expression in E. coli": "not soluble"}
{"sequence": "MTARARSALLDAEHIVGYTTYVELLPDEITEGADDIYNTPMCGEVSRTEEAIDRALAGNDVAIIGSGDPNVYALAGLALEIIESKGATATMLDFDVVPGVP", "soluble on expression in E. coli": "not soluble"}
{"sequence": "MTDRYSFSLTTFSPSGKLGQIDYALTAVKQGVTSLGIKATNGVVIATEKKSSSPLAMSETLSKVSLLTPDIGAVYSGMGPDYRVLVDKSRKVAHTSYKRIYGEYPPTKLLVSEVAKIMQEATQSGGVRPFGVSLLIAGHDEFNGFSLYQVDPSGSYFPWKATAIGKGSVAAKTFLEKRWNDELELEDAIHIALLTLKESVEGEFNGDTIELAIIGDENPDLLGYTGIPTDKGPRFRKLTSQEINDRLEAL", "soluble on expression in E. coli": "soluble"}
{"sequence": "MNTNLAELPVRIFKILSEELQKDNIWIKIVEFDEDPIYYMKSTEIESFLKREKCCEQVLRKWGNRGQTVGSLLARLQFLSRTYEDEFDSIQFHLRRKFKPLRWIPDPEQQVTKEIDEGNIKLECKAQGFPCPEIKWFTKGSKEPVHIGRVYTILRCKCSNEHQYKCVAKNEIREGSPYSEIYRKAGKQFSSVIESEYVDVTSCIRDDELCESCKKYEMGRLSQILAEDQEKPENKVSPVRPNLDITLRAADKVALIMSNCSYVHLPELRTPHCDAQTLADALQKMNYKTVTLADLTLDEMRYFIRVYQKLIGNGVYAVFYFVGHGFEVNGQCYLLGVDAPADAHQPQHSMSMDWLLSIFRHKTPDLNLLLLDVCRKFVPYDAISAFVEYSEQFKKFHRAHRNMVYGYSTSGGVGAYEVKGEVNGVFMKYLKNHVQLEISVIDMLNKVLLDIGDDQKVCDLQVPEIRSTLTHPRSLADPLIFDGHTASFDNHTIHWRLMHELPTPATIRFETQQLVATIWFQFCGNFTNKVYVFASISDFRPCQEDTDMGENEELSENALNHRAFVEFPEELHCSDVREYNDDEEGVSMLWILSGLQKIKKEAGLTCEVHLRHVDDPEKTIEMKNVDIGHILITRIKCLQ", "soluble on expression in E. coli": "not soluble"}
{"sequence": "MRFIHALLLAGIAHSAYASEKLTFKTDLEKLEREKAAQIGVAIVDPQGEIVAGHRMAQRFAMCSTFKFPLAALVFERIDSGTERGDRKLSYGPDMIVEWSPATERFLASGHMTVLEAAQAAVQLSDNGATNLLLREIGGPAAMTQYFRKIGDSVSRLDRKEPEMGDNTPGDLRDTTTPIAMARTVAKVLYGGALTSTSTHTIERWLIGNQTGDATLRAGFPKDWVVGEKTGTCANGGRNDIGFFKAQERDYAVAVYTTAPKLSAVERDELVASVGQVITQLILSTDK", "soluble on expression in E. coli": "soluble"}
{"sequence": "MGSDKIHHHHHHMTKHNKAYKFRLYPTGDQAHLMRKTFGCVRFVYNRMLAERKEAYEKHKDDKEQLKKQKLPTPAKYKAEFEWLKEVDSLALANAQLNLQTAYKNFFRGQNDFPTFKSKKDRKSYTTNVVNGNIMLLNGHIKLPKLKMVRIKQHREIPQDHVIKSCTISMTPTGKYYVSILTEYEKEIVQNEVETVVGLDFAMDRLYVSSEDERANYPKFYREMLDRLAKAQRVLSRRTKGSIRWNKQRIRVAKLHEKVANQRKNFLHHKSKELATHFDVVAIEDLNMKGMSQALHFGKSVADNAWGMFTSFLAYKLHEQGKQLMKIDKWFPSTKTCSSCGNVKNMSLSERVYSCICGVNLDRDYNAAINIKNEAIRLLALA", "soluble on expression in E. coli": "not soluble"}
{"sequence": "MQAIAIDQFSEPEETQVEQVENPDRNEAGYEVCNQSGENLSVAIAYFDTSIDSYRSEGWWNLDQSKCQFFPNLLDSVDEVYVFAESDQTLWSGDFPFCMQEDAFEYPDANRDRCPSPAYSKGFLKVEVGDAKTWTTNLTPSQLEHHHHHH", "soluble on expression in E. coli": "not soluble"}
{"sequence": "MNNSINHKFHHISRAEYQELLAVSRGDAVADYIIDNVSILDLINGGEISGPIVIKGRYIAGVGAEYTDAPALQRIDARGATAVPGFIDAHLHIESSMMTPVTFETATLPRGLTTVICDPHEIVNVMGEAGFAWFARCAEQARQNQYLQVSSCVPALEGCDVNGASFTLEQMLAWRDHPQVTGLAEMMDYPGVISGQNALLDKLDAFRHLTLDGHCPGLGGKELNAYITAGIENCHESYQLEEGRRKLQLGMSLMIREGSAARNLNALAPLINEFNSPQCMLCTDDRNPWEIAHEGHIDALIRRLIEQHNVPLHVAYRVASWSTARHFGLNHLGLLAPGKQADIVLLSDARKVTVQQVLVKGEPIDAQTLQAEESARLAQSAPPYGNTIARQPVSASDFALQFTPGKRYRVIDVIHNELITHSHSSVYSENGFDRDDVSFIAVLERYGQRLAPACGLLGGFGLNEGALAATVSHDSHNIVVIGRSAEEMALAVNQVIQDGGGLCVVRNGQVQSHLPLPIAGLMSTDTAQSLAEQIDALKAAARECGPLPDEPFIQMAFLSLPVIPALKLTSQGLFDGEKFAFTTLEVTELEHHHHHH", "soluble on expression in E. coli": "soluble"}
{"sequence": "MSLHTSHVIPAPRIDVWEWHTRPGAVFRLTPPFLPLRPLEQATSLAKGTTVFALPAGLRWEARHDLSGYIQHHRFTDVCINAPVKSLASWRHIHDFTDHPSGTLITDTVHTRAPRTTLSPAFAYRQHQLINDIQAQQRFYELTRSNPTESTPLTIGLTGSRGLVGRALTAQLTTLGHTVVQLVRGESKPHQRHWDPAHPAPNLLEGLDALIHLAGEPILGRFNDAHKADIRDSRIEPTRQLSQLVQKSSTCRTMVSASAIGYYGHARGDEILDEGSTQGDDFLASVCEEWEAASRTDATSNKRIVNIRTGVVMSGRGGMLPVLKAVFSVGLGGPFRGSNPWMSWIAIDDLCDIYIRAVLDPKLSGAINAVAPNPIKNQDFVDALAKELKRPAKMTISSLGPAILLGQQGAKELALADQRVQPRVLNNLDHHFRYVDIRSCLAHELGGENLLDI", "soluble on expression in E. coli": "not soluble"}
{"sequence": "MSLKTSHLKEVPETLAMRESLRDRCAQVAAKLDRSHPMTKDEMEQISRRMLEEADLPESYLGWVMVMISSEFWADALASVPPERRLFLLPHCLKHAEGCPAEYDQFGMNCKECGACSIADFRSIAEDMGYRVLVAEGSPVVMKIIVGGYVDAVVGVACLNVLEKAIDKVLLAGIPCMAVPLLSSDCRNTKVDEPWVEQMIRTPYKPAAAKTKSYVHLMRAAGLLFEDTLFERLAEGHHHHHH", "soluble on expression in E. coli": "not soluble"}
{"sequence": "LNNRKQMAQQKFAFYEKSLPNKKRSFFEMKYYNDVTTPKIYRLTDQEMKLFDKLEA", "soluble on expression in E. coli": "not soluble"}
{"sequence": "MPTIKDYYLPKRPTLLFSLHPEPTQAIINGTKILEYRRRFFARPFQAFVYTTGDNGGIQLFLRCDQGLQLVPEQLALVGALLQHDAPTTTAAYFEGAKAGLALPITAFTTLPNIPLAQLRRQFENFVTPRSYVFLDQPDRQAQLDWLLTQPCESLTILDWRKRYAALATLLQKLEHHHHHH", "soluble on expression in E. coli": "not soluble"}
{"sequence": "MAAASAVSVLLVAAERNRWHRLPSLLLPPRTWVWRQRTMKYTTATGRNITKVLIANRGEIACRVMRTAKKLGVQTVAVYSEADRNSMHVDMADEAYSIGPAPSQQSYLSMEKIIQVAKTSAAQAIHPGCGFLSENMEFAELCKQEGIIFIGPPPSAIRDMGIKSTSKSIMAAAGVPVVEGYHGEDQSDQCLKEHARRIGYPVMIKAVRGGGGKGMRIVRSEQEFQEQLESAWREAKKSFNDDAMLIEKFVDTPRHVEVQVFGDHHGNAVYLFERDCSVQRRHQKIIEEAPAPGIKSEVRKKLGEAAVRAAKAVNYVGAGTVEFIMDSKHNFCFMEMNTRLQVEHPVTEMITGTDLVEWQLRIAAGEKIPLSQEEITLQGHAFEARIYAEDPSNNFMPVAGPLVHLSTPRADPSTRIETGVRQGDEVSVHYDPMIAKLVVWAADRQAALTKLRYSLRQYNIVGLPTNIDFLLNLSGHPEFEAGNVHTDFIPQHHKQLLLSRKAAAKESLCQAALGLILKEKAMTDTFTLQAHDQFSPFSSSSGRRLNISYTRNMTLKDGKNNVAIAVTYNHDGSYSMQIEDKTFQVLGNLYSEGDCTYLKCSVNGVASKAKLIILENTIYLFSKEGSIEIDIPVPKYLSSVSSQETQGGPLAPMTGTIEKVFVKAGDKVKAGDSLMVMIAMKMEHTIKSPKDGTVKKVFYREGAQANRHTPLVEFEEEESDKRESE", "soluble on expression in E. coli": "soluble"}
{"sequence": "HHHHHHGCMSGRKPIIGVMGPGKADTAENQLVMANELGKQIATHGWILLTGGRSLGVMHEAMKGAKEAGGTTIGVLPGPDTSEISDAVDIPIVTGLGSARDNINALSSNVLVAVGMGPGTAAEVALALKAKKPVVLLGTQPEAEKFFTSLDAGLVHVAADVAGAIAAVKQLLAKLN", "soluble on expression in E. coli": "soluble"}
{"sequence": "MFFCTILSFFDFGRYFMEKNQYEIYHENKKHTPNDFPYNTYLCSIPLDFKSVNLHWHNEVELIVIKKGQGLVNVNLVTYTVNAGDVVFVFPGQLHSISQKDYSIMEYENILFKSSLLKSSGYDLCNDKFIQPLLSGNLNIYPVINSNFDFHDSLYSLINEIDKLCDKRPYAYQLAVKSYLFQIFYLLISNCGLNQIKPISKKALEK", "soluble on expression in E. coli": "not soluble"}
{"sequence": "MTIGIDKINFYVPKYYVDMAKLAEARQVDPNKFLIGIGQTEMAVSPVNQDIVSMGANAAKDIITDEDKKKIGMVIVATESAVDAAKAAAVQIHNLLGIQPFARCFEMKEACYAATPAIQLAKDYLATRPNEKVLVIATDTARYGLNSGGEPTQGAGAVAMVIAHNPSILALNEDAVAYTEDVYDFWRPTGHKYPLVDGALSKDAYIRSFQQSWNEYAKRQGKSLADFASLCFHVPFTKMGKKALESIIDNADETTQERLRSGYEDAVDYNRYVGNIYTGSLYLSLISLLENRDLQAGETIGLFSYGSGSVVEFYSATLVEGYKDHLDQAAHKALLNNRTEVSVDAYETFFKRFDDVEFDEEQDAVHEDRHIFYLSNIENNVREYHRPE", "soluble on expression in E. coli": "soluble"}
{"sequence": "FNGHSLKAYPRMTFQLTIKGGNEMNYRIEEKEAFRIVGIKKRVPIIFKGINPEIASMWESLDEKAINKLKELSNVAPSGLISASTNFSEGRTEENGELDHYIGAATTKRCPDNFSRLEVPASTWAVFESIGPFPDTLQEVWGRIYSEWFPSSNYEQIEGPEILWNEHKDVTSPSFKSEIWIPITKK", "soluble on expression in E. coli": "not soluble"}
{"sequence": "ESDSVEFNNAISYVNKIKTRFLDHPEIYRSFLEILHTYQKEQLHTKGRPFRGMSEEEVFTEVANLFRGQEDLLSEFGQFLPEAKR", "soluble on expression in E. coli": "soluble"}
{"sequence": "MGSSHHHHHHSSGLVPRGSHMASKRCRQCSGDSASSSTSSLSPSELPPSKKAAGGQRVTAEVEVAPITTDATSATVTAAGGAKKKATTGSPARRTSSAAKITNGDAGELIRTAEALAALNAKKSEKEIWSDVVPFVRRTTDSDFDPSRMYKFITWNVAGLRGLLKKNASALRAFMEAEKPDVLCLQETKLNVDEADANATLGVVDGYSFVDHPCAFKRGYSGTRTYMKNSTTVKGLHARCTRGFALPSEPQADAAAGSRVLVEGAGDEEGRVLTTFLSPDPDSASSSSRIALVNTYVANSGMGLTRLPYRVQSFDPSMREYLHRLDTWATENAAVPSAAAMGSGSSPHGFIWAGDLNVAERDYDRYYAGTFKSMQECSGFAPEERMSFRETMQRTNSVDIFRQLYPQAGPVYSFWSQRINGRPRNLGWRLDYFVVSSRLASYVVDCFPMPTVMGSDHCPFQMWMRHP", "soluble on expression in E. coli": "soluble"}
